T1: recombinant his-S-tagged pro-domain of human BDNF (residues Ala1-Arg110), from pET-30 Xa/LIC, E. coli (human) (UniProt P23560)
T1 sequence: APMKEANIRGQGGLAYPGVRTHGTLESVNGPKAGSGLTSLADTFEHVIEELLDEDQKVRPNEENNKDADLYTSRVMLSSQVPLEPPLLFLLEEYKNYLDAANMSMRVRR


Key:
[1] = molecular target: purified human Sortilin extracellular domain (produced in stably transfected CHO cells) (human) (UniProt Q99523); experiment: SPR (Biacore), immobilised Sortilin extracellular domain (94 fmol/mm2); GST-pro-domain of proBDNF, upper panel of FIG. 7
[2] = molecular target: T1, recombinant his-S-tagged pro-domain of human BDNF (residues Ala1-Arg110), from pET-30 Xa/LIC, E. coli (human); experiment: SPR competition, 390 nM Sortilin with 300 uM peptide over immobilised pro-dom-BDNF

Chain of purified human Sortilin extracellular domain (produced in stably transfected CHO cells) (human) (Q99523 78-755 V650M limits assumed): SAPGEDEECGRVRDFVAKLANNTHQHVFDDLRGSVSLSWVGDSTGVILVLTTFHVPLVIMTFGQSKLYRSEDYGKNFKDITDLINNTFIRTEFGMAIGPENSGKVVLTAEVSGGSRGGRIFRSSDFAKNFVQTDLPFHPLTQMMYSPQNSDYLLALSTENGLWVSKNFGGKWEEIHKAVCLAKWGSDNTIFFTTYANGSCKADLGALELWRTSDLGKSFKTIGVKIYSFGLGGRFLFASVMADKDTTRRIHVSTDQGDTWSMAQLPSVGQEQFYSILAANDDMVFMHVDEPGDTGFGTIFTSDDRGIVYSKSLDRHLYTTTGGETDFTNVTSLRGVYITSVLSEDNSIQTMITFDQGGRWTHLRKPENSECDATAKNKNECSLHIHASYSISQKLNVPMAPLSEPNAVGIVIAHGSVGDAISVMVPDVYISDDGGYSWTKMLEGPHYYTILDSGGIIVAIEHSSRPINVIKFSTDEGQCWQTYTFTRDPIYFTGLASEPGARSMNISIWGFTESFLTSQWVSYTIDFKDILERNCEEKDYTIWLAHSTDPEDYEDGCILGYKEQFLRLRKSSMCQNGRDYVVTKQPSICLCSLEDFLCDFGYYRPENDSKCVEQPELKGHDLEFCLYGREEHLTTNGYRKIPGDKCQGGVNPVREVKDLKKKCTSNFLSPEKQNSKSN

| Kd [1] | percent inhibition of Sortilin binding to pro-dom-BDNF [2] | Binder |
| --- | --- | --- |
| 58 nM | – | pro-domain of human BDNF fused to GST (glutathione S-transferase), produced in E. coli (protein, not shown: a dimerising Fc or GST) APMKEANIRGQGGLAYPGVRTHGTLESVNGPKAGSGLTSLADTFEHVIEELLDEDQKVRPNEENNKDADLYTSRVMLSSQVPLEPPLLFLLEEYKNYLDAANMSMRVRR |
| – | 66% | RSSDFAKNFVQTDLPF [sortilin peptide … (synthetic, soluble)] |

Reference: US20150023971A1
